For experiment [1], the target named is HLA-B*54:01. The experiment can be described thus: IEDB peptide-MHC binding, purified MHC/competitive/radioactivity; filed as Kd, often an IC50 or EC50 that approximates it; ≥ and ≤ were set here for values at or beyond the usual limits of such assays.
In experiment [2] the target is HLA-B*53:01. Described as above.
The target in experiment [3] is HLA-B*07:02. Described as above.
Experiment [4] addresses HLA-B*35:01. Described as above.
The target of experiment [5] is HLA-B*51:01. The description is as above.
Experiment [6] addresses HLA-A*31:01. Described as above. As to conditions: source organism: SARS coronavirus Tor2.
Experiment [7] has as its target HLA-A*33:01. Described as above. Particulars: source organism: SARS coronavirus Tor2.
For experiment [8], the target named is HLA-A*68:01. The description is as above. Particulars: source organism: SARS coronavirus Tor2.
In experiment [9] the target is HLA-B*58:01. The experiment can be described thus: IEDB peptide-MHC binding, purified MHC/direct/fluorescence; filed as Kd, often an IC50 or EC50 that approximates it; ≥ and ≤ were set here for values at or beyond the usual limits of such assays.
Experiment [10] addresses HLA-A*02:01. Described as above.
Experiment [11] concerns the target HLA-A*69:01. Described as above.
The target of experiment [12] is HLA-A*26:01. Described as above.
Experiment [13] deals with HLA-B*15:01. The description is as above.
For experiment [14], the target named is HLA-B*46:01. The experiment can be described thus: IEDB peptide-MHC binding, purified MHC/competitive/fluorescence; filed as Kd, often an IC50 or EC50 that approximates it; ≥ and ≤ were set here for values at or beyond the usual limits of such assays.
Experiment [15] has as its target HLA-B*27:05. Kind of experiment: IEDB peptide-MHC binding, purified MHC/direct/fluorescence; filed as Kd, often an IC50 or EC50 that approximates it; ≥ and ≤ were set here for values at or beyond the usual limits of such assays.
The target of experiment [16] is HLA-A*31:01. The description is as above.
The target of experiment [17] is HLA-B*44:02. The experiment is described as above.
Experiment [18] addresses HLA-B*07:02. The experiment is described as above.
Experiment [19] deals with HLA-A*11:01. The experiment is described as above.
Experiment [20] has as its target HLA-B*40:01. The description is as above.
Experiment [21] has as its target HLA-B*08:01. Described as above.
Experiment [22] has as its target HLA-A*01:01. Described as above.
Experiment [23] addresses HLA-A*03:01. The experiment is described as above.
Experiment [24] has as its target HLA-A*30:02. Kind of experiment: IEDB peptide-MHC binding, purified MHC/competitive/radioactivity; filed as Kd, often an IC50 or EC50 that approximates it; ≥ and ≤ were set here for values at or beyond the usual limits of such assays. As to conditions: source organism: Dengue virus 3 Martinique/1243/1999.
Experiment [25] deals with HLA-A*24:03. Kind of experiment: IEDB peptide-MHC binding, purified MHC/direct/fluorescence; filed as Kd, often an IC50 or EC50 that approximates it; ≥ and ≤ were set here for values at or beyond the usual limits of such assays.
For experiment [26], the target named is HLA-B*51:01. Kind of experiment: IEDB peptide-MHC binding, purified MHC/competitive/fluorescence; filed as Kd, often an IC50 or EC50 that approximates it; ≥ and ≤ were set here for values at or beyond the usual limits of such assays. Particulars: source organism: Campylobacter jejuni subsp. jejuni NCTC 11168 = ATCC 700819.
For experiment [27], the target named is HLA-A*02:01. Kind of experiment: IEDB peptide-MHC binding, purified MHC/competitive/radioactivity; filed as Kd, often an IC50 or EC50 that approximates it; ≥ and ≤ were set here for values at or beyond the usual limits of such assays. As to conditions: source organism: Triticum aestivum.
The target of experiment [28] is HLA-A*02:03. The description is as above. Particulars: source organism: Triticum aestivum.
The target of experiment [29] is HLA-A*68:02. The experiment is described as above. Particulars: source organism: Triticum aestivum.
In experiment [30] the target is HLA-A*02:06. The experiment is described as above. As to conditions: source organism: Triticum aestivum.
Experiment [31] deals with HLA-A*02:02. The experiment is described as above. As to conditions: source organism: Triticum aestivum.
[32] abbreviates: source organism: Vaccinia virus WR.
Setting [33] is: source organism: SARS coronavirus Tor2.
Where [34] appears, read: source organism: Vibrio cholerae.
[35] abbreviates: source organism: Salmonella enterica subsp. enterica serovar Typhimurium.
Where [36] appears, read: source organism: dengue virus type 3.
[37] abbreviates: source organism: Triticum aestivum.
Setting [38] is: source organism: Giardia lamblia ATCC 50803.

Some results are limits rather than exact numbers.

The term Kd denotes a measure of binding affinity in units of concentration.

Regarding DPMVIENGI, the Kd in experiment [1] (setting [32]) is 0.485 µM; in [2] (setting [32]) it was 3.86 µM; in [3] (setting [32]) it was 0.388 µM; in experiment [4] (setting [32]), 2.36 µM; in experiment [5] (setting [32]), 0.0346 µM.

For the sequence SPYYIRKESY, the dissociation constant Kd in experiment [1] (setting [32]) was 0.669 µM; in [2] (setting [32]) it was 0.646 µM; in experiment [3] (setting [32]), 0.0654 µM; in experiment [4] (setting [32]), 0.101 µM; in experiment [5] (setting [32]), at least 69.6 µM.

In the case of WPVTLACFVL, the dissociation constant Kd is 3.56 µM in experiment [1] (setting [33]); 0.0738 µM in experiment [2] (setting [33]); 0.956 µM in experiment [3] (setting [33]); 0.0715 µM in experiment [4] (setting [33]); 0.00911 µM in experiment [5] (setting [33]).

YIFFASFYY: the Kd in experiment [6] was determined as 0.784 µM; in [7], 0.641 µM; in experiment [8], 0.0017 µM; in experiment [9] (source organism: SARS-CoV1), 3.12 µM; in experiment [10] (source organism: SARS-CoV1), 6.82 µM; in experiment [11] (source organism: SARS-CoV1), 0.738 µM. In addition, the Kd is 0.527 µM in experiment [12] (source organism: SARS-CoV1), 3.71 µM in experiment [13] (source organism: SARS-CoV1) and at least 20 µM in [14] (source organism: SARS-CoV1).

AEIDRSFKP: the Kd in experiment [15] (setting [34]), in experiment [16] (setting [34]), in [9] (setting [34]), in experiment [10] (setting [34]), in experiment [17] (setting [34]) and in [18] (setting [34]) was at least 20 µM each time. Further, the dissociation constant (Kd) was at least 20 µM in [19] (setting [34]); at least 20 µM in experiment [11] (setting [34]); 1.51 µM in [20] (setting [34]); at least 20 µM in experiment [21] (setting [34]); at least 20 µM in [22] (setting [34]); at least 20 µM in experiment [12] (setting [34]). For the same sequence, the Kd in experiment [23] (setting [34]) and in experiment [13] (setting [34]) was at least 20 µM throughout.

As for YQKKNASVY, the equilibrium dissociation constant (Kd) in experiment [15] (setting [35]) came out at 5.07 µM; in experiment [13] (setting [35]), 0.33 µM; in experiment [14] (source organism: Salmonella enterica subsp. enterica serovar Typhi), 0.293 µM.

With KPRSQMETDF, the Kd is at least 49.3 µM in experiment [1] (setting [33]); at least 53.7 µM in [2] (setting [33]); 0.0788 µM in experiment [3] (setting [33]); 19.5 µM in [4] (setting [33]); 2.5 µM in experiment [5] (setting [33]).

For the sequence FPQAAPHGVV, the dissociation constant Kd in [1] (setting [33]) was determined as 0.0158 µM; in [2] (setting [33]), 4.14 µM; in experiment [3] (setting [33]) it was 0.0822 µM; in experiment [4] (setting [33]), 1.68 µM; in experiment [5] (setting [33]) it was 0.159 µM.

For FPGDKTSYWV, the Kd came out at 0.00536 µM in [1] (setting [32]); 0.0144 µM in [2] (setting [32]); 0.261 µM in [3] (setting [32]); 0.0888 µM in experiment [4] (setting [32]); 0.0501 µM in experiment [5] (setting [32]).

For MPICMDVRAI, the Kd in experiment [1] (setting [33]) is 0.00396 µM; in experiment [2] (setting [33]) it was 0.00598 µM; in experiment [3] (setting [33]) it was 0.3 µM; in experiment [4] (setting [33]) it was 0.0948 µM; in experiment [5] (setting [33]), 0.00224 µM.

TSEHGGRAY: the dissociation constant Kd in experiment [24] is at least 67.2 µM; in experiment [15] (setting [36]), at least 20 µM; in experiment [16] (setting [36]) it was at least 20 µM; in [9] (setting [36]), at least 20 µM; in [10] (setting [36]), at least 20 µM; in [17] (setting [36]), at least 20 µM. Further, the Kd in [18] (setting [36]) is at least 20 µM; in experiment [19] (setting [36]), at least 20 µM; in [11] (setting [36]) it was at least 20 µM; in experiment [20] (setting [36]), at least 20 µM; in [22] (setting [36]) it was 0.337 µM; in [23] (setting [36]), at least 20 µM. In experiment [13] (setting [36]), this sequence had a Kd of 0.248 µM.

For LPAMCNVY, the Kd was 2.82 µM in experiment [1] (setting [37]); 1.07 µM in experiment [2] (setting [37]); at least 21.2 µM in experiment [3] (setting [37]); 0.0413 µM in experiment [4] (setting [37]); 5.76 µM in experiment [5] (setting [37]).

Take YPEYNRAVKF: the Kd in experiment [1] (setting [32]) turned out to be 0.473 µM; in experiment [2] (setting [32]) it was 0.0417 µM; in experiment [3] (setting [32]), 0.122 µM; in experiment [4] (setting [32]) it was 0.808 µM; in experiment [5] (setting [32]), 0.857 µM.

As for DPSERVFKKI, the Kd in experiment [1] (setting [32]) was at least 43.3 µM; in [2] (setting [32]) it was 18.2 µM; in experiment [3] (setting [32]) it was at least 69.6 µM; in [4] (setting [32]), at least 69.9 µM; in experiment [5] (setting [32]), at least 46.7 µM.

As for SYLQAIGIL, the Kd in [25] (source organism: Listeria monocytogenes) turned out to be 0.0011 µM.

KPVDTSNSF: the dissociation constant (Kd) in experiment [1] (setting [33]) worked out at 5.77 µM; in experiment [2] (setting [33]), 0.151 µM; in [3] (setting [33]), 0.0207 µM; in experiment [4] (setting [33]), 0.266 µM; in experiment [5] (setting [33]) it was 0.898 µM.

In experiment [25] (source organism: Mycobacterium tuberculosis), PYATGPLVF returned a Kd of 0.382 µM.

With LSILPFFIV, the Kd in experiment [26] was at least 20 µM.

Turning to DIIRAHPWF, the Kd in experiment [15] (setting [38]), in experiment [16] (setting [38]), in [9] (setting [38]), in experiment [17] (setting [38]), in experiment [18] (setting [38]) and in experiment [19] (setting [38]) was at least 20 µM throughout. Moreover, the Kd is at least 20 µM in [11] (setting [38]); at least 20 µM in experiment [20] (setting [38]); 9.92 µM in [21] (setting [38]); at least 20 µM in [22] (setting [38]); 0.286 µM in experiment [12] (setting [38]); 8.16 µM in [23] (setting [38]). The same sequence had a Kd in [13] (setting [38]) of 16.6 µM.

Sequence IYKNKISDF showed a Kd in experiment [25] (source organism: Cryptosporidium parvum) of 0.13 µM.

Take SQVSFQQPL: the dissociation constant (Kd) in experiment [27] worked out at 0.256 µM; in [28], 0.138 µM; in experiment [29] it was 0.206 µM; in experiment [30], 0.0143 µM; in [31], 0.00446 µM.
